Data reported in US20220194999A1 (Janssen / Centocor, published 2022).

Target: T1, HLA-A*02:01 class I complex (conditional p*HLA*02:01, biotinylated heavy chain with beta2-microglobulin) (human, biotinylated heavy chain)
T1 construct: UV-labile peptide p* is cleaved and exchanged for the test peptide; also called HLA 2.1
Experiment: UV peptide exchange, HLA class I ELISA, % of Pos peptide;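 also: Streptavidin-captured HLA complexes after exchange detected via HRP anti-human B2M antibody, absorbance read, colour scales with intact complex, normalized to exchange control peptide as 100%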
Description: The HLA class I ELISA is an enzyme immunoassay based on the detection of beta2-microglobulin (B2M) of (peptide-stabilized) HLA class I complexes. To this end streptavidin is bound onto polystyrene microtiter wells. After washing and blocking, HLA complex present in exchange reaction mixtures or ELISA controls is captured by the streptavidin on the microtiter plate via its biotinylated heavy chain. Non-bound material is removed by washing. Subsequently, horseradish peroxidase (HRP)-conjugated antibody to human B2M is added. […] In the latter case B2M is removed during the washing step. After removal of non-bound HRP conjugate by washing, a substrate solution is added to the wells. A colored product is formed in proportion to the amount of intact HLA complex present in the samples. After the reaction has been terminated by the addition of a stop solution, absorbance is measured in a microtiter plate reader. The absorbance is normalized to the absorbance of an exchange control peptide (represents 100%). Also, suboptimal HLA binding of peptides with a moderate to low affinity for HLA class I molecules can be detected by this ELISA technique
Coating wells of two NUNC MaxiSorp™ 96-well ELISA plates: only the contents of one coating buffer capsule were dissolved in 100 mL of distilled water (0.05 M carbonate-bicarbonate buffer, pH 9.6 at 25° C.). 46 μL of Streptavidin stock solution were added to 23 mL coating buffer. 100 μL of the Streptavidin stock solution were added to all wells. Each microtiter plate was covered with an adhesive seal and incubated overnight at room temperature (18-25° C.).

Row | Binder | Average % | Exch I (%) | Exch II (%)
1 | SLTCTYFPV (also called M212) [TP53_S127F6 mimic peptide SLTCTYFPV] | 95.5% | 93.7% | 97.2%
2 | SLTCTYFPL (also called M214) [TP53_S127F8 mimic peptide SLTCTYFPL] | 70.8% | 69.9% | 71.6%
